From patent US20190032056, “STEM-LOOP COMPOSITIONS AND METHODS FOR INHIBITING FACTOR D” (Vitrisa Therapeutics, Inc., published 2019)

Experiments:
[1] = target: T1, complement Factor D (fD) in C1q-depleted human serum (Homo sapiens, UniProt P00746 SEQ:1-228); assay: inhibition; hemolysis, sd 1.5; details: protein: extract; tags: endogenous fD, about 9.6 nM in 10% serum; hairpin
Method: (§1) In V-bottom 96-well plates the following reagents were added to a final volume of 250 μL: appropriate volume of 1× Veronal buffer with 0.1% gelatin, 100 μL aptamer, 30 μL of C1q-depleted human serum and 20 μl RBCs. This mixture was incubated for 25 minutes at room temperature, then the reaction was stopped by the addition of 5 μL of 500 mM EDTA. The plate was centrifuged for 5 minutes at 500×g at room temperature, then 100 μL of supernatant was removed and the extent of RBC lysis was determined by measuring absorbance at 405 nm.
(§2) The potency of the PEG-aptamers P01, P04, P06, P07 and P08 compared to their non-pegylated counterparts was determined in the alternative complement-dependent hemolysis assay as described in Example 2.

complement Factor D (fD) [2] = target: T2, complement Factor D (fD) (Homo sapiens, UniProt P00746 SEQ:1-228); assay: flow; bead-based direct binding; details: tags: His-tagged recombinant, bead-immobilized via His capture beads (flow) or anti-His Eu (TR-FRET); hairpin
[3] = target: T1, complement Factor D (fD) in …; assay: inhibition; hemolysis; details: protein: extract; tags: endogenous fD, about 9.6 nM in 10% serum; hairpin
Method: as §1
The following nine aptamers with 2′OMe-Gs in Stem 1 (S1) were synthesized: Aptamer 76 (2′OMe-Gs substituted in Stem 1 (S1) of Aptamer 39), Aptamer 116 (Aptamer comprising loop 2 (L2) of Aptamer 39 and Stem 1 (51) of Aptamer 15 with 2′OMe-Gs in Stem 1 (S1)), Aptamer 102 (4 base pair 2′OMe-G Stem 1 (S1) variant of Aptamer 76), Aptamer 104 (4 base pair 2′OMe-G Stem 1 (S1) variant of Aptamer 74), Aptamer 106 (Aptamer 88 with 2′OMe-G Stem 1 (S1)), Aptamer 107 (4 base pair 2′OMe-G Stem 1 (S1) variant of Aptamer 88), Aptamer 108 (3 base pair 2′OMe-G Stem 1 (S1) variant of Aptamer 92), Aptamer 109 (4 base pair 2′OMe-G Stem 1 (S1) variant of Aptamer 98) and, Aptamer 99 (4 base pair 2′OMe-G Stem 1 (S1) variant of Aptamer 60).

complement Factor D (fD) [4] = target: T2, complement Factor D (fD); assay: SPR; details: tags: amine-coupled to dextran chip for SPR; free in esterase assay; hairpin
Method: The binding affinity of aptamers for fD was determined by surface plasmon resonance (SPR) on a Reichert4 SPR System, where either aptamer or fD was immobilized as ligand on a solid surface and the interactant analyte was flowed in solution over the immobilized ligand (Table 20).

[5] = target: T1, complement Factor D (fD) in …; assay: inhibition; hemolysis; details: protein: extract; tags: endogenous fD, about 9.6 nM in 10% serum; hairpin; remark: listed apart in the source
Method: as §1
To this end, series of aptamer variants were designed based on the loop L2 sequences for Aptamers 15, 39, and 38 in which the sequence of S1 and S2 were altered while maintaining pairing (Table 17). These included Aptamers 90, and 94-98. Additionally, a truncate of Aptamer 38 (Aptamer 91) was designed with 3 base pairs in stem S1. The stem elements (S1 and S2) from this molecule were also used to generate Aptamer 92, which contained L2 from Aptamer 39.

[6] = target: T1, complement Factor D (fD) in …; assay: inhibition; hemolysis, sd 0.1; details: protein: extract; tags: endogenous fD, about 9.6 nM in 10% serum; hairpin
Method: as §1, §2

complement Factor D (fD) [7] = target: T2, complement Factor D (fD); assay: TR-FRET, 25 C; details: tags: His-tagged recombinant, bead-immobilized via His capture beads (flow) or anti-His Eu (TR-FRET); hairpin
Method: The binding affinity of aptamers for fD was determined in solution using a homogenous time-resolved fluorescence resonance energy transfer (TR-FRET) assay (Table 21). In brief, 2.5 nM recombinant human Factor D with a hexahistidine tag (SEQ ID NO:324) (His), 2.5 nM anti-His Europium, and varied concentrations of Dylight® 650-labeled aptamer was added to half-well black 96-well plates in TR-FRET buffer (50 mM MOPS, pH 7.4, 125 mM NaCl, 5 mM KCl, 0.1 mg/mL BSA, 50 μM CHAPS, 1 mM CaCl₂ and 1 mM MgCl₂). After 1 hour incubation at 25° C., binding activity was assessed using a BioTek® Cytation™ 5 plate reader. Affinity binding constants were calculated as the concentration at which 50% of aptamer is bound using a single site binding model, with values ranging from 0.66 nM to 2.5 nM (Table 21).

[8] = target: T1, complement Factor D (fD) in …; assay: inhibition; hemolysis, sd 0.6; details: protein: extract; tags: endogenous fD, about 9.6 nM in 10% serum; hairpin
Method: as §1, §2

[9] = target: T1, complement Factor D (fD) in …; assay: inhibition; hemolysis, sd 0.8; details: protein: extract; tags: endogenous fD, about 9.6 nM in 10% serum; hairpin
Method: as §1, §2

[10] = target: T1, complement Factor D (fD) in …; assay: inhibition; hemolysis, sd 0.9; details: protein: extract; tags: endogenous fD, about 9.6 nM in 10% serum; hairpin
Method: as §1, §2

T2 sequence (P00746 26-253): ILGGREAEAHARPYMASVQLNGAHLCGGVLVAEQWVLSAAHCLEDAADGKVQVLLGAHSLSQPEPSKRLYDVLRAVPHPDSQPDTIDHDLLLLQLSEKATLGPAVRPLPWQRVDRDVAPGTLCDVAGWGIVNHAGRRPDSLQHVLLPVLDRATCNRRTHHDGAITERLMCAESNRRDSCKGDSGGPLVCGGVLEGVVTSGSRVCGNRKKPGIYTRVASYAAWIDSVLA
T1 sequence (P00746 26-253): as above

B1: P01 (PEGylated Aptamer 15) (ssRNA)
RNA: CCGCCUUGCCAGUAUUGGCUUAGGCUGGAAGUUUGGCGG
modifications: 2'-F G; 2'-OMe A,C,U; 5' 40 kDa branched PEG via C6NH2; 3' idT
Question: With B1 as the binder, how does the IC50 [1] read?
Answer: 6.1 nM

B2: Aptamer 1721 (ssRNA)
RNA: CCGCCUUGCCAGUAUUGGCUUAGGCUGGAAGUUUGGCGG
modifications: 2'-F G except 2'-OMe G at 3,12,27,35,36,38,39; 2'-OMe A,C,U; 5' C6SH; 3' idT
Question: Which Kd (complement Factor D (fD) [2]) does the source give for B2 here?
Answer: 4.5 nM

B3: Aptamer 104 (ssRNA)
RNA: CGCCUUGCCAGUAUUGGCUUAGGCUGGAAGUUUGGCG
modifications: 2'-F G except 2'-OMe G in stem 1; 2'-OMe A,C,U; 5' C6NH2; 3' idT
Question: With B3 as the binder, how does the IC50 [3] read?
Answer: < 10 nM

Question: And the Kd (complement Factor D (fD) [4])?
Answer: 3.9 nM

B4: Aptamer 16 (ssRNA)
RNA: CGCCUUGCCAGUAUUGGCUUAGGCUGGAAGUUUGGCG
modifications: 2'-F G; 2'-OMe A,C,U; 5' C6NH2; 3' idT
Question: For B4, which IC50 [5] is on record?
Answer: < 10 nM

B5: Aptamer 102 (ssRNA)
RNA: CGACUUGCCAGUAUUGGCGAUGGCUGGAAGUUUGUCG
modifications: 2'-F G except 2'-OMe G in stem 1; 2'-OMe A,C,U; 5' C6NH2; 3' idT
Question: How did the IC50 [6] turn out when B5 was run?
Answer: 6.3 nM

Question: And the Kd (complement Factor D (fD) [7])?
Answer: 1.6 nM

Question: And the Kd (complement Factor D (fD) [4])?
Answer: 2.5 nM

B6: Aptamer 107 (ssRNA)
RNA: CGACUUGCCAGUAUUGGCUUAGGCUGGAAGUUUGUCG
modifications: 2'-F G except 2'-OMe G in stem 1; 2'-OMe A,C,U; 5' C6NH2; 3' idT
Question: For B6, which IC50 [3] is on record?
Answer: < 10 nM

Question: And the Kd (complement Factor D (fD) [4])?
Answer: 4.2 nM

B7: Aptamer 99 (ssRNA)
RNA: CGCCUUGCCAGUAUUGGCGAUGGCUGGAAGUUUGGCG
modifications: 2'-F G except 2'-OMe G in stem 1; 2'-OMe A,C,U; 5' C6NH2; 3' idT
Question: For B7, which IC50 [3] is on record?
Answer: < 10 nM

Question: What about the Kd (complement Factor D (fD) [4]) of the same binder?
Answer: 3.34 nM

B8: P07 (PEGylated Aptamer 102) (ssRNA)
RNA: CGACUUGCCAGUAUUGGCGAUGGCUGGAAGUUUGUCG
modifications: as Aptamer 102; 5' 40 kDa branched PEG via C6NH2; 3' idT
Question: For B8, which IC50 [8] is on record?
Answer: 4.4 nM

B9: Aptamer 76 (ssRNA)
RNA: CCGACUUGCCAGUAUUGGCGAUGGCUGGAAGUUUGUCGG
modifications: 2'-F G except 2'-OMe G in stem 1; 2'-OMe A,C,U; 5' C6NH2; 3' idT
Question: What does the source list for B9?
Answer: Kd (complement Factor D (fD) [7]): 0.8 nM; IC50 [9]: 4.2 nM; Kd (complement Factor D (fD) [4]): 1.6 nM

B10: P06 (PEGylated Aptamer 76) (ssRNA)
RNA: CCGACUUGCCAGUAUUGGCGAUGGCUGGAAGUUUGUCGG
modifications: as Aptamer 76; 5' 40 kDa branched PEG via C6NH2; 3' idT
Question: Which IC50 [10] does the source give for B10 here?
Answer: 4.1 nM

B11: Aptamer 108 (ssRNA)
RNA: GCCUUGCGGGUAUUGGCGAUGGCCCGAAGUUUGGC
modifications: 2'-F G except 2'-OMe G in stem 1; 2'-OMe A,C,U; 5' C6NH2; 3' idT
Question: With B11 as the binder, how does the IC50 [3] read?
Answer: < 10 nM

Question: And the Kd (complement Factor D (fD) [4])?
Answer: 2.7 nM

B12: Aptamer 93 (ssRNA)
RNA: GCCUUGAGGGUAUUGGCGAUGGCCCUAAGUUUGGC
modifications: 2'-F G; 2'-OMe A,C,U; 5' C6NH2; 3' idT
Question: B12 was tested. Which IC50 [5] did it give?
Answer: ~100 nM

B13: Aptamer 92 (ssRNA)
RNA: GCCUUGCGGGUAUUGGCGAUGGCCCGAAGUUUGGC
modifications: 2'-F G; 2'-OMe A,C,U; 5' C6NH2; 3' idT
Question: Which IC50 [5] does the source give for B13 here?
Answer: ~10 nM
